Among the data in publication PMC4110284 are percent dimer, stoichiometry N and Kd values, retold here.

As usually defined, the stoichiometry N is the number of molecules, sites or subunits per partner or assembly. In general, Kd refers to the concentration at which binding is half-saturated.

Experiment [1] concerns the target mutant IgG4 with Pro222 (human). As to the kind of experiment: AUC; sedimentation velocity, 40,000 rpm, SEDFIT c(s) analysis with integration of the monomer and dimer peaks; IgG4(Ser222) 0.5-8 mg/ml in PBS-50, PBS-137 and PBS-250 in H2O at 20 °C and in PBS-137 in 2H2O at 6, 20 and 30 °C; IgG4(Pro222) 0.5-2.5 mg/ml in PBS-137 in H2O at 20 °C; pH 7.4; dimer to monomers.

The target of experiment [2] is wild-type human-mouse chimera IgG4 B72.3 with Ser222 (human). Described as above.

In experiment [1], mutant IgG4 with Pro222 (antibody) had a percent dimer of 2 to 3% and a stoichiometry N of 2.

B1: wild-type human-mouse chimera IgG4 B72.3 with Ser222 (antibody, V domains shown)
VH: QVQLQQSDAELVKPGASVKISCKASGYTFTDHAIHWAKQKPEQGLEWIGYISPGNDDIKYNEKFKGKATLTADKSSSTAYMQLNSLTSEDSAVYFCKRSYYGHWGQGTTLTVSS
VL: DIQMTQSPASLSVSVGETVTITCRASENIYSNLAWYQQKQGKSPQLLVYAATNLADGVPSRFSGSGSGTQYSLKINSLQSEDFGSYYCQHFWGTPYTFGGGTRLEIK
In experiment [2], B1 displayed a Kd of 600 to 3000 µM, a percent dimer of 1 to 3% and a stoichiometry N of 2.
